17 sequences from a protein production outcome set (Wang et al. 2014) can be followed below.

A short description of the series: label from the status in PepcDB records.
With “MEIFGKTFREGRFVLKEKNFTVEFAVEKIHLGWKISGRVKGSPGRLEVLRTKAPEKVLVNNWQSWGPCRVVDAFSFKPPEIDPNWRYTASVVPDVLERNLQSDYFVAEEGKVYGFLSSKIAHPFFAVEDGELVAYLEYFDVEFDDFVPLEPLVVLEDPNTPLLLEKYAELVGMENNARVPKHTPTGWCSWYHYFLDLTWEETLKNLKLAKNFPFEVFQIDDAYEKDIGDWLVTRGDFPSVEEMAKVIAENGFIPGIWTAPFSVSETSDVFNEHPDWVVKENGEPKMAYRNWNKKIYALDLSKDEVLNWLFDLFSSLRKMGYRYFKIDFLFAGAVPGERKKNITPIQAFRKGIETIRKAVGEDSFILGCGSPLLPAVGCVDGMRIGPDTAPFWGEHIEDNGAPAARWALRNAITRYFMHDRFWLNDPDCLILREEKTDLTQKEKELYSYTCGVLDNMIIESDDLSLVRDHGKKVLKETLELLGGRPRVQNIMSEDLRYEIVSSGTLSGNVKIVVDLNSREYHLEKEGKSSLKKRVVKREDGRNFYFYEEGERE”, the protein production result was “not failed”.
For “MEIFKPDYLMIDSMIFFPTLILSFLIKRNYVKLLKSIGIVSPIYLFWDFLATWRNSWTFNPKYVAGIYVIDLPIEEVMFFLVTPFATLLIFDFVMGKVRDKEVKWVPKVVCVAIPLLLLTLPFVYNYSYTFIDLVYLIMSLIVSLLIGRNLLASRNFWIFMGLSYIPFLVFDYFLTSDPVVIYGSHSIVGIRFITIPIEDFIYSFSMITFYTVFYIRGNSLWMKQK”, the protein production result is “failed”.
The result for “MEIHFEKVTSDNRKAVENLQVFAEQQAFIESMAENLKESDQFPEWESAGIYDGNQLIGYAMYGRWQDGRVWLDRFLIDQRFQGQGYGKAACRLLMLKLIEKYQTNKLYLSVYDTNSSAIRLYQQLGFVFNGELDTNGERVMEWTHQNK” reads “not failed”; that for “MEIIHLSEIDSTNDYAKELAKEGKRNFIVLADKQNNGKGRWGRVWYSDEGGLYFSMVLDSKLYNPKVINLLVPICIIEVLKNYVDKELGLKFPNDIMVKVNDNYKKLGGILTELTDDYMIIGIGINVNNQIRNEIREIAISLKEITGKELDKVEILSNFLKTFESYLEKLKNKEIDDYEILKKYKKYSITIGKQVKILLSNNEIITGKVYDIDFDGIVLGTEKGIERIPSGICIHVR”, “not failed”; that for “MEIIIYIFVSIAIISLQAITPFVIRKSECFGVNVGERANRNAELTQLKKQYVGQVILWTSFVAIIGIALIQGFHSSENTQAGIFIASMFSQLIVSFIIYYRFHHTTLQWKRDKIEAGEISTNSIIMVDTSFHRRKMVISYTWFIVPLLIFIITLAITVVFYSTAPVDFPIHFDMSGTVTDTVAKSPRVVLLLPMMQLGMIALFIFINFVIARSKQTVENENPTDSLKRNMLFRQISSKAMLIMCTIMVIDFLIMQVVTLLALPAEWMMVTMIISVVLILFGTVLLAVKVGQGGSRLKFADQPDGVNKPIRDDDSFWKAGVIYFNRNDPALFVEKRFGIGWTINTARPVAWLSFVIIIAVIILISILF”, “failed”.
In the case of “MEIRMSKSSSKPVLVTCGLPYANGKAHIGHLRTYVPADIYARSLKKEGREVTFVCGSDTHGTPIVVNAEELGITPTELVEIYHKHFDETFKQLGIYFDAFGTTDDPENHNRTHDIVSRLIEKGYVYPKIIEIAYCPACNRFLPDRYVEGACPHCGETARGDECDQGCGKHLEPGELQNPVCTICGGPAEYRQQEHFFFKLSEFSNYLMDYLSKDLGGTTNAINYARGWVKQGLTDWCITRNLEWGVKFPGHEDLVVYVWVDAPIGYIAFTEEWAAQAGDSWEKFWKGDGEIVHFIGGDITYHHCIFWPAMLKGADYSVPTAVVASGMVKIEDRKFSKTRGYVVWVGEDYLDHGFHPDLLRYYLASYTSHTKELNFSWRVLQEKINAELVAVLGNFLYRTMLFAFKNYGEVPEGEVEPEIRKEIEKALVEVKAAMEEYEFKKAVDSAMALASFGNTYFQSHEPWKLIKEDRDACGQVVYNCLHLAKALSLIFEPVIPQTMEKAWKGLGHESDIHAALYEETLVPLKAGTKLAKPEILFTKLEDDRIGEMEEIANQRVAAANAKRNGVKGGEKEPSKSEGMGPSEASKASEKTVDVATAEEKVQVETLPVIDYEDFAKLDIRVGKVLLVEPVKKSKKLLRIEVDIGEEKPRQLVAGMASYYTPEELVGKSVIVLANLKPAKLCGVESNGMMLAADDGGAIVAALMPDKEIKSGSRIR”, the protein production entry was “failed”.
As to “MEIRTFLERALKEDLGHGDLFERVLEKDFKATAFVRAKQEGVFSGEKYALELLEMTGIECVQTIKDKERFKPKDALMEIRGDFSMLLKVERTLLNLLQHSSGIATLTSRFVEALNSHKVRLLDTRKTRPLLRIFEKYSVLNGGASNHRLGLDDALMLKDTHLRHVKDLKSFLTHARKNLPFTAKIEIECESFEEAKNAMNAGADIVMCDNLSVLETKEIAAYRDAHYPFVLLEASGNISLESINAYAKSGVDAISVGALIHQATFIDMHMKMA”, the protein production entry is “failed”.
Take “MEISEQESVLEVKKRLGQFLQIPTSSITLFVSCWELIDGLDIEDYPIISHGTRIDLTVTPLFTAPSFIHAAVRKIHVTVKFPSKQFTVEVDRTETVSSLKDKIHIVENTPIKRMQLYYSGIELADDYRNLNEYGITEFSEIVVFLKSINRAKDVAPTSSSLFNGARIPVEIKDTCTISEMREGLQANKTLPRDEYIFVHKQRIMRENCSLRWHGVENGDTLFVFKGSISREGF”: the protein production result is on record as “failed”.
Turning to “MEITLNSGFKMPIIGLGVWRMEKEELRDLIIDAIKIGYRHLDCAANYKNEAEVGEALTEAFTTGLVKREDLFITTKLWSSDHGHVIEACKDSLKKLQLDYLDLFLVHIPIATKHTGIGTTDSALGDDGVLDIDTTISLETTWHDMEKLVSMGLVRSIGISNYDVFLTRDCLAYSKIKPAVNQIETHPYFQRDSLVKFCQKHGICVTAHTPLGGATANAEWFGTVSCLDDPVLKDVAEKYKQTVAQIVLRWGIQRNTVVIPKTSKPERLEENFQVFDFQLSKEDMEVIKSMERNYRTHQTAKFWGIELYA”, the protein production result is “not failed”.
For “MEITLSKSLLIAVVLAPLLGSIIAGLFGRQVGRKGAQYVTILGVAVSCVLSCVTLYQLVEQGASPFNQNLYTFFDVGNYSAHVGFMVDRLTAMMMVVVTFVSLLVHIYTIGYMEEDPGYQRFFSYISLFTFSMLTLVMSNNFLQLFFGWEAVGLVSYLLIGFWFKRPTAVFANMKAFLVNRVGDFGFILGIAGVLLWFGSLDYSTVFANATTMAGAKVQLFAGHEWSVMTLICICLFIGAMGKSAQVPLHVWLPDSMEGPTPISALIHAATMVTAGIFMVARMSPLFELSETALNFILFIGATTAFFTGLIGIVQNDIKRVVAYSTLSQLGYMTVALGVSAYSAAVFHLMTHAFFKALLFLAAGSVIIGMHHEQDMRKMGGLRKYMKVTYWTSVIGTLALVGTPFFSGFYSKDTIIEAAAHHAHESHNWVATYGYWAVLGGVLVTSFYSFRLLFLTFHGKERFRDAHAHDVHSHHDSAHTDAEAQVHSHDAHAHDDHGHGHHGAHEPHESKWVVTLPLVLLAIPSIAIGFFTIGPMLFGTDWQGHHAVHAMKGQAVSFFTGIVDFYDPARDTVGALAEEFHGPVAFALHGMLAAPFFLTVAGLLLAALFYLWKPELATKSRKTFAPIVWLLENKYGFDKLWINGFAGGGVVLGKASRAVDTHVVDGAVVNGSARLIDLAANLLRRTQSGFLYHYAFAMIIGLIALLAVLMHFWR”, the protein production result was “failed”.
On to “MEKAILITFLIATTSMVYQTIGQEEEISPISPESLAYEPAAAYEYDHELLSHMTTRRIKFLQDCSDKMSSKCNVEMTEGLIDDKPVSEDCCVNFLKIGRECHEGLMTFVFATYELKDVASAILPRSKRMWNKCVETTAAKIGAPLAFET”, for which the protein production result was “failed”.
Consider “MEKEIKEKNLPLELTLVEASPRVGGKIQTVKKDGYIIERGPDSFLERKKSAPQLVKDLGLEHLLVNNATGQSYVLVNRTLHPMPKGAVMGIPTKIAPFVSTGLFSLSGKARAAMDFILPASKTKDDQSLGEFFRRRVGDEVVENLIEPLLSGIYAGDIDKLSLMSTFPQFYQTEQKHRSLILGMKKTRPQGSGQQLTAKKQGQFQTLSTGLQTLVEEIEKQLKLTKVYKGTKVTKLSHSGSCYSLELDNGVTLDADSVIVTAPHKAAAGMLSELPAISHLKNMHSTSVANVALGFPEGSVQMEHEGTGFVISRNSDFAITACTWTNKKWPHAAPEGKTLLRAYVGKAGDESIVDLSDNDIINIVLEDLKKVMNINGEPEMTCVTRWHESMPQYHVGHKQRIKELREALASAYPGVYMTGASFEGVGIPDCIDQGKAAVSDALTYLFS”, for which the protein production entry was “failed”.
“MEKEMARLAAFDMDGTLLMPDHHLGEKTLSTLARLRERDITLTFATGRHALEMQHILGALSLDAYLITGNGTRVHSLEGELLHRDDLPADVAELVLYQQWDTRASMHIFNDDGWFTGKENPALLQAFVYSGFRYQIIDVKKMPLGSVTKICFCGDHDDLTRLQIQLYEALGERAHLCFSATDCLEVLPVGCNKGAALTVLTQHLGLSLRDCMAFGDAMNDREMLGSVGSGFIMGNAMPQLRAELPHLPVIGHCRNQAVSHYLTHWLDYPHLPYSPE”: the protein production result is listed as “failed”.
Take “MEKGTLVEFRVQGDRRLGVVDRPDGKTRWFVVDERGQSHSLAPRQITYTVNGNTYKPSEIDRFLEEVKPYLDPSSLEVAWELLVEDGETVTPSQMANLLFSESNSAPSYAAHCLLSDDKLYFKQKGDAYEPRTAAQVADRKHQIEVEALKARGQQEFLTRVEQALQGEAVEWQRHDRQRLEGLEKYGTLLADIVKVGLNYDSLARAYPPPAPVLETMNMLGRPATPQGAFQLLVDLGWWSATENLFLRRSSIPVQFPSKVLEVAQQRLDFPPTDLDTNRLDLTHLKVYTVDDESTTEIDDGLSWEKLPDDRERLWVHIADPTRYLAPEDDLDLEARKRGSTVYLPTGMIPMFPEVLATGPMSLVQGRVCCALSFGVVLDGTGAVQDFTIHPSLIKPTYRLTYEDVDEMLELGVQAEPEIAAIATWATKRKSWRYNQGAISINMPEAMIKVKNDDISIDILDDSRSRQLVAEMMILAGEVAARYGQVHNIPLPFRGQPQPELPPEDELLRLPAGFVRACAMRRCMPKSEMSITPVRHAGLGLDTYTQATSPIRRYSDLLTHFQLKAHLRGEVPPFTAEELKEVMMTVTSTTQELTMVERQTNRYWALEYLRRHPEEIWQVTVLMWLREDSNLALILLEDLGLQLPMVFKRSVRLGEQVLVKVSISDPQKDVIQFQEIIYQEAQTAAN”: the protein production entry is given as “failed”.
Turning to “MEKGVGFEKDMKTVSDGFVGGFFPVSTTKIAWKSRKRSALLNLDKAPEAVTEVTPEKNEITAMDTEKVGEPMTTTPLLSEKRKALFEPLEPITNLNGKRPTAADSLLPPPDFETANYPKGWLIGKKRKLVNVDVVESMRRIAVQEMNRKDREIDGLNEQLEEDSRCLEHLQLQLLQERSKRTEIERENTMLKEQVDMLVNMIQEDDEEGAEEP”, the protein production result is listed as “failed”.
In the case of “MEKISDLIECIAYEKNLPKEMISKVIQGCLLKMAQNELDPLARYLVVEENKQLQLIQLVEVLEDGDERLVNDPSKYISLSKAKEMDPSVKIKDELSYSLSLESMKQGAINRLFKDLQYQLEKALEDSHFEAFQKRLNSVLMGQVILVDHNQNTFIEIEQQFQGVLSMRHRIKGESFKVGDSIKAVLTQVKRTKKGLLLELSRTTPKMLEALLELEVPEIKDKEIEIIHCARIPGNRAKVSFFSHNARIDPIGAAVGVKGVRINAISNELNKENIDCIEYSNVPEIYITLALAPAKILSVEIKKIPIEELNAEEKESIQERFIVNNHLQKAKVRLLDIEKSKAIGKGGVNVCLASMLTGYHIEFETIPSVKENAENESEKETPKVGVEALESLFKNLEHHHHHH”, the protein production entry is listed as “not failed”.
Turning to “MEKKIVYFNKPGRENTEETLRLAVERAKELGIKHLVVASSYGDTAMKALEMAEGLEVVVVTYHTGFVREGENTMPPEVEEELRKRGAKIVRQSHILSGLERSISRKLGGVSRTEAIAEALRSLFGHGLKVCVEITIMAADSGAIPIEEVVAVGGRSRGADTAVVIRPAHMNNFFDAEIKEIICMPRNKR”, the protein production result is “not failed”.
